Drawing on the supplement of paper PMC10567573, this text covers protein stability index for 94 variants.

Sequences and labels used below:
B1: SCNN1D (parent)
chain: FLGHHSFSVRPGTEATISIREDEV
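Also: lentivirally expressed fusions sorted by FACS into six bins by GFP to DsRed ratio, PSI derived from sequencing read proportions per bin multiplied by bin number.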

In the data set the parent is B1. Description: protein stability index of a GFP-peptide fusion (GPS, HEK-293T) (PSI 1-6); higher = more stable. As to conditions: c terminus: a fixed tail appended.
FLGHHSFSVMPGTEATISIREDEV [R10M]: the protein stability index was determined as 2.03.

As to FLGHHSFSVWPGTEATISIREDEV [R10W], the protein stability index amounted to 1.63. For FLGHHSFSVEPGTEATISIREDEV [R10E], the protein stability index was 2.94.

For the variant FLGHHSFSVIPGTEATISIREDEV [R10I], the protein stability index was 1.9. As for FLGHHSFSVPPGTEATISIREDEV [R10P], the protein stability index came to 2.11.

For the variant FLGHHSFSVYPGTEATISIREDEV [R10Y], the protein stability index came out at 1.63.

As for FLGHHSFSVSPGTEATISIREDEV [R10S], the protein stability index is 2.35. FLGHHSFSVRPGTEATISIRHDEV [E21H]: the protein stability index was found to be 1.48.

As to FLGHHSFSVRPGTEATISIRFDEV [E21F], the protein stability index stood at 2.3. In the case of FLGHHSFSVRPGTEATISIRPDEV [E21P], the protein stability index was found to be 2.33. Turning to FLGHHSFSVRPGTEATISIRDDEV [E21D], the protein stability index turned out to be 1.56. Then FLGHHSFSVRPGTEATISIRLDEV [E21L], with 2.48; and FLGHHSFSVRPGTEATISIRWDEV [E21W], with 2.45; and FLGHHSFSVRPGTEATISIRGDEV [E21G], with 1.33. Consider FLGHHSFSVRPGTPATISIREDEV [E14P], for which the protein stability index is 1.76.

For FLGHHSFSVRPGTQATISIREDEV [E14Q], the protein stability index stood at 2.13. Regarding FLGHHSFSVRPGTTATISIREDEV [E14T], the protein stability index turned out to be 2.24. Turning to FLGHHSFSVRPGTDATISIREDEV [E14D], the protein stability index is 1.13.

Consider FLGHHSFSVRPGTRATISIREDEV [E14R], for which the protein stability index stood at 2.1.

Turning to FLGHHSFSVRPGTYATISIREDEV [E14Y], the protein stability index was 1.19.

For FLGHHSFSVRPGTCATISIREDEV [E14C], the protein stability index was found to be 1.65. Then FLGHHSFSVRPGTERTISIREDEV [A15R], with 1.88; and FLGHHSFSVRPGTEMTISIREDEV [A15M], with 1.58. Turning to FLGHHSFSVRPGTEQTISIREDEV [A15Q], the protein stability index was 1.96. As to FLGHHSFSVRPGTEFTISIREDEV [A15F], the protein stability index stood at 2.62. For the variant FLGHHSFSVRPGTETTISIREDEV [A15T], the protein stability index worked out at 2.31.

Turning to FLGHHSFSVRPGTEETISIREDEV [A15E], the protein stability index worked out at 1.93. As for FLGHHSFSVRPGTESTISIREDEV [A15S], the protein stability index was determined as 2.63. FLGHHSFSVRPGTEITISIREDEV [A15I]: the protein stability index is 1.95.

With FLGHHSFSVRPGTEPTISIREDEV [A15P], the protein stability index was determined as 2.04.

As for FLGHHSFSVRPGPEATISIREDEV [T13P], the protein stability index was determined as 1.88. FLGHHSFSVRPGDEATISIREDEV [T13D]: the protein stability index came out at 1.63. Then FLGHHSFSVRPGCEATISIREDEV [T13C], with 1.58; and FLGHHSFSVRPGYEATISIREDEV [T13Y], with 1.36.

Regarding FLGHHSFSVRPGIEATISIREDEV [T13I], the protein stability index was 1.44. Take FLGHHSFSVRPGQEATISIREDEV [T13Q]: the protein stability index turned out to be 1.97. With FLGHHSFSVRPGFEATISIREDEV [T13F], the protein stability index was determined as 1.91. As for FLGHHSFSVRPGMEATISIREDEV [T13M], the protein stability index was found to be 1.73. For the variant FLGHHSFSVRPGTEATISIPEDEV [R20P], the protein stability index came out at 1.79. As for FLGHHSFSVRPGTEATISINEDEV [R20N], the protein stability index is 1.49. Regarding FLGHHSFSVRPGTEATISIHEDEV [R20H], the protein stability index came out at 1.67. On to FLGHHSFSVRPGTEATISIMEDEV [R20M], for which the protein stability index was 1.5. FLGHHSFSVRPGTEATISIAEDEV [R20A]: the protein stability index was 2.3. Turning to FLGHHSFSVRPGTEATISITEDEV [R20T], the protein stability index turned out to be 1.79.

Consider FLGHHSFSVRPQTEATISIREDEV [G12Q], for which the protein stability index worked out at 1.56. As to FLGHHSFSVRPKTEATISIREDEV [G12K], the protein stability index came to 1.71. In the case of FLGHHSFSVRPPTEATISIREDEV [G12P], the protein stability index came to 1.83. As to FLGHHSFSVRPRTEATISIREDEV [G12R], the protein stability index worked out at 1.46. For FLGHHSFSVRPVTEATISIREDEV [G12V], the protein stability index is 1.57. Then FLGHHSFSVRPSTEATISIREDEV [G12S], with 1.55. As for FLGHHSFSVRPCTEATISIREDEV [G12C], the protein stability index was found to be 2.24. Turning to FLGHHSFSVRPNTEATISIREDEV [G12N], the protein stability index was 2.05. On to FLGHHSFSVRGGTEATISIREDEV [P11G], for which the protein stability index is 1.64. Turning to FLGHHSFSVRRGTEATISIREDEV [P11R], the protein stability index was 2.02.

As for FLGHHSFSVRNGTEATISIREDEV [P11N], the protein stability index was 1.98. With FLGHHSFSVRHGTEATISIREDEV [P11H], the protein stability index came to 1.7. As for FLGHHSFSVRVGTEATISIREDEV [P11V], the figure is 1.53; as for FLGHHSFSVRLGTEATISIREDEV [P11L], 1.82; as for FLGHHSFSVRKGTEATISIREDEV [P11K], 1.93. Take FLGHHSFSVRIGTEATISIREDEV [P11I]: the protein stability index came to 2.14. For FLGHHSFSVRTGTEATISIREDEV [P11T], the protein stability index stood at 1.59. As for FLGHHSFSVREGTEATISIREDEV [P11E], the figure is 2.14. FLGHHSFSVRFGTEATISIREDEV [P11F]: the protein stability index was determined as 1.47. Turning to FLGHHSFSVRPGTEATISIRELEV [D22L], the protein stability index is 1.51. Consider FLGHHSFSVRPGTEATISIRESEV [D22S], for which the protein stability index amounted to 1.35.

As for FLGHHSFSVRPGTEATISIREHEV [D22H], the protein stability index is 1.79. Turning to FLGHHSFSVRPGTEATISIREWEV [D22W], the protein stability index is 1.77. FLGHHSFSVRPGTEATISIREIEV [D22I]: the protein stability index was 2.39. Turning to FLGHHSFSVRPGTEATISIREKEV [D22K], the protein stability index was determined as 2.04. With FLGHHSFSVRPGTEATISIRECEV [D22C], the protein stability index turned out to be 2.21.

FLGHHSFSVRPGTEATISIREPEV [D22P]: the protein stability index was 1.74. Consider FLGHDSFSVRPGTEATISIREDEV [H5D], for which the protein stability index was found to be 2.02.

As to FLGHSSFSVRPGTEATISIREDEV [H5S], the protein stability index came to 1.75.

Turning to FLGHQSFSVRPGTEATISIREDEV [H5Q], the protein stability index is 1.25. For FLGHNSFSVRPGTEATISIREDEV [H5N], the protein stability index came to 1.71. For FLGHESFSVRPGTEATISIREDEV [H5E], the protein stability index worked out at 1.78.

Turning to FLGHCSFSVRPGTEATISIREDEV [H5C], the protein stability index amounted to 1.53. As for FLGHMSFSVRPGTEATISIREDEV [H5M], the figure is 2.33; as for FLGHPSFSVRPGTEATISIREDEV [H5P], 2.13; as for FLGHHCFSVRPGTEATISIREDEV [S6C], 2.25.

Turning to FLGHHNFSVRPGTEATISIREDEV [S6N], the protein stability index was found to be 2.08. Then FLGHHEFSVRPGTEATISIREDEV [S6E], with 2.73; and FLGHHVFSVRPGTEATISIREDEV [S6V], with 1.88; and FLGHHRFSVRPGTEATISIREDEV [S6R], with 2.19. Then FLGHHGFSVRPGTEATISIREDEV [S6G], with 1.16; and FLGHHFFSVRPGTEATISIREDEV [S6F], with 2.92; and FLGHHSFSVRPGTEATIEIREDEV [S18E], with 2.49.

On to FLGHHSFSVRPGTEATIHIREDEV [S18H], for which the protein stability index was determined as 1.33. Turning to FLGHHSFSVRPGTEATIAIREDEV [S18A], the protein stability index was determined as 1.6. Turning to FLGHHSFCVRPGTEATISIREDEV [S8C], the protein stability index was determined as 4.76. In the case of FLGHHSFEVRPGTEATISIREDEV [S8E], the protein stability index came to 2.48. As for FLGHHSFYVRPGTEATISIREDEV [S8Y], the figure is 1.86; as for FLGHHSFFVRPGTEATISIREDEV [S8F], 1.37. In the case of FLGHHSFWVRPGTEATISIREDEV [S8W], the protein stability index is 2.68.
